Laboratory results as given in article PMC5414365, “Activin A more prominently regulates muscle mass in primates than does GDF8” (Nature Communications, 2017).

B1: ActRIIB.hFc (soluble form of activin receptor type IIB fused to human IgG Fc fragment) (Fc fusion, UniProt Q13705 19-137, looked up)
chain: SGRGEAETRECIYYNANWELERTNQSGLERCEGEQDKRLHCYASWRNSSGTIELVKKGCWLDDFNCYDRQECVATEENPQVYFCCCEGNFCNERFTHLPEAGGPEVTYEPPPTAPTLLT
notes: activin receptor type IIB (ACVR2B; ActRIIB), soluble form; also called hActRIIB.hFc; ACVR2B; source: made at Regeneron
B2: GDF11 (ligand, human, UniProt O95390 299-407, looked up)
chain: NLGLDCDEHSSESRCCRYPLTVDFEAFGWDWIIAPKRYKANYCSGQCEYMFMQKYPHTHLVQQANPRGSAGPCCTPTKMSPINMLYFNDKQQIIYGKIPGMVVDRCGCS
notes: human GDF11, mature growth factor domain; source: bought: R&D Systems
B3: activin B (ligand, human, UniProt P09529 293-407, looked up)
chain: GLECDGRTNLCCRQQFFIDFRLIGWNDWIIAPTGYYGNYCEGSCPAYLAGVPGSASSFHTAVVNQYRMRGLNPGTVNSCCIPTKLSTMSMLYFDDEYNIVKRDVPNMIVEECGCA
notes: human activin B: inhibin beta B chain, mature growth factor domain; source: bought: R&D Systems
B4: activin A (ligand, human, UniProt P08476 311-426, looked up)
chain: GLECDGKVNICCKKQFFVSFKDIGWNDWIIAPSGYHANYCEGECPSHIAGTSGSSLSFHSTVINHYRMRGHSPFANLKSCCVPTKLRPMSMLYYDDGQNIIKKDIQNMIVEECGCS
notes: human activin A: inhibin beta A chain, mature growth factor domain; also called Act A; source: bought: R&D Systems

Assays:
activin A = target: B4; experiment: cell-based or functional assay
activin AC [1] = target: T1, activin AC (human, UniProt P08476 311-426; P55103 237-352); experiment: cell-based or functional assay
T1 sequence (looked up) 1: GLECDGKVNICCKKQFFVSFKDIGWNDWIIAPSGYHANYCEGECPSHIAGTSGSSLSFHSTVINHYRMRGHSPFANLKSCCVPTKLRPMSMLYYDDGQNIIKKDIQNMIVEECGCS
T1 sequence (looked up) 2: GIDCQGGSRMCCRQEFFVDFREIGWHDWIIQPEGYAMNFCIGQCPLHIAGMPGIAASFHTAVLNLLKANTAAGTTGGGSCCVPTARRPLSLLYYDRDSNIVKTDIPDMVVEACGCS

GDF11 = target: B2; experiment: cell-based or functional assay
[2] = target: T2, Growth and differentiation factor 8 (GDF8) (human, UniProt O14793 267-375); experiment: cell-based or functional assay
T2 sequence (looked up): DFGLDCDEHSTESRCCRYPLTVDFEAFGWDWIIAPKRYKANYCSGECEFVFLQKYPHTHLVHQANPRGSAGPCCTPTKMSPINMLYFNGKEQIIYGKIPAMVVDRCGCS

activin B = target: B3; experiment: cell-based or functional assay
activin AB [3] = target: T3, activin AB (human, UniProt P08476 311-426; P09529 293-407); experiment: cell-based or functional assay
T3 sequence (looked up) 1: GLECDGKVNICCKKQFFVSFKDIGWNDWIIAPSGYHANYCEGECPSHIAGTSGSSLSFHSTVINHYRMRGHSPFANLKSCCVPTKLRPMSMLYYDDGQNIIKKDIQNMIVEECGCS
T3 sequence (looked up) 2: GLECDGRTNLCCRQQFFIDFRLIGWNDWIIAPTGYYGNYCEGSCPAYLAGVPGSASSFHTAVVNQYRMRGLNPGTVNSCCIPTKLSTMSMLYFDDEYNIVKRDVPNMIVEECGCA

activin AC [4] = target: T1, activin AC; experiment: SPR; ligands at 40 to 0.78 nM injected over captured ActRIIB.hFc surface; Biacore T200, carboxymethyl dextran-coated CM4 sensor chip, 25 °C; conditions: both partners purified
activin AB [5] = target: T3, activin AB; experiment: as above; conditions: both partners purified
[6] = target: B1; experiment: as above; conditions: both partners purified

Binder: B1
IC50 of ActRIIB.hFc against activin A-stimulated Smad2/3 activity (CAGAx12-luc reporter, A204 cells; fixed ligand concentration) (activin A): 630 pM | IC50 of ActRIIB.hFc against activin AC-stimulated Smad2/3 activity (CAGAx12-luc reporter, A204 cells; fixed ligand concentration) (activin AC [1]): 85 pM | IC50 of ActRIIB.hFc against GDF11-stimulated Smad2/3 activity (CAGAx12-luc reporter, A204 cells; fixed ligand concentration) (GDF11): 210 pM | IC50 of ActRIIB.hFc against GDF8-stimulated Smad2/3 activity (CAGAx12-luc reporter, A204 cells; fixed ligand concentration) [2]: 300 pM | IC50 of ActRIIB.hFc against activin B-stimulated Smad2/3 activity (CAGAx12-luc reporter, A204 cells; fixed ligand concentration) (activin B): 550 pM | IC50 of ActRIIB.hFc against activin AB-stimulated Smad2/3 activity (CAGAx12-luc reporter, A204 cells; fixed ligand concentration) (activin AB [3]): 390 pM | Kd (activin AC [4]): 5900 pM | Kd (activin AB [5]): 4.4 pM

Binder: B2
Kd [6]: 14 pM

Binder: B3
Kd [6]: 6.4 pM

Binder: B4
Kd [6]: < 3.5 pM
